# T1: human OX40 chimera with murine CRDII replacing human CRDII (human/mouse chimera, UniProt P43489 29-277)
# T1 chain: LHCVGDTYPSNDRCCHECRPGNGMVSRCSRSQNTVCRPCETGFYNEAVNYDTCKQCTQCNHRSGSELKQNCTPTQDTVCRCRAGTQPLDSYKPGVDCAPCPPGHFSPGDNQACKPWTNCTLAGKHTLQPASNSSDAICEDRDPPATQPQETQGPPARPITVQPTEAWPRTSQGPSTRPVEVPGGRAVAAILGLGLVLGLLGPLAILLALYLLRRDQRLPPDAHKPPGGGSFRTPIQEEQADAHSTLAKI
# B1: Hu3738 (antibody, V domains shown)
# VH: EVQLVESGGGLVQPGGSLRLSCAASGFTFSRYGMSWVRQAPGKGLELVATINSNGGRTYYPDSVKGRFTISRDNAKNSLYLQMNSLRAEDTAVYYCAREGITTAYAMDYWGQGTTVTVSS
# VL: DIVMTQSPDSLAVSLGERATINCKASQSVDYDGDSYMHWYQQKPGQPPKLLIYAASILESGVPDRFSGSGSGTDFTLTISSLQAEDVAVYYCQQSNEDPRTFGGGTKVEIKR
# notes: Humanized antibody; also called exemplary anti-OX40 antibody Hu3738; Hu3738 VH.1b / Hu3738 VL.1
# Molecular target: T1, human OX40 chimera with murine CRDII …
# Assay: flow cytometry on 293s-huOX40-muCRDII cells
# Protocol: After plating cells, 50 μL of Hu3738 or isotype control antibody at 2 μg/mL were added to corresponding wells in duplicate for each cell line and allowed to incubate on ice for 30 minutes. Following incubation, 200 μL of Dulbecco's Phosphate Buffered Saline (DPBS) was added into each well and plates were spun down at 1000 rpm for three minutes. Supernatants from each well were removed and 50 μL of Cy5-Donkey anti-Human IgG (Jackson ImmunoResearch) secondary antibody was added at a 1:250 dilution, which was then incubated for 30 minutes on ice in the dark. Following the incubation period, 200 μL of DPBS was added prior to spinning down the plate at 1000 rpm for three minutes. Supernatants were removed and each well was re-suspended with 100 μL of DPBS+1% Formaldehyde. Samples were analyzed on the dual laser FACSCalibur flow cytometer (Becton Dickinson).
binder,measurement,value
B1,binding result,no binding (tested: 2 µg/mL)
